Laboratory results as given in US20260209316A1 (US Dept. of Health and Human Services, published 2026).
Changes are numbered by the printed parent chain.

B1: Fab generated from 316L (Fab, V domains shown)
VH: EERLVESGGGLVQPGGSLRLSCAASGFTFGDYAMHWVRQVPGKSLEWLSGISWSGYTTYSADSVKGRFTISRDNAKNSLYLQMNRLRPEDTGLYYCVTLIGAIGIKDSLDVWGRGVLVTVSS
VL: QSVLTQPPSVSGAPGQRVTVSCSGSSSNIGAGNYVQWYQQLPGTAPKVLIYQTEKRPSGTSDRFSGSKSDTSASLTINGLQSEDEADYYCQVYDSNLNGWVFGGGTRLTVL
notes: also called 316L Fab
B2: Fab generated from 380L (Fab, V domains shown)
VH: EVQLVESGGGLVQPGGSLTLSCAASGFTFGDYVMHWVRQVPGRGLEWLSAVSWSGYTTYSADSVKGRFTISRDNAKNSLYLQMSRLGTADTGLYYCVTLIGAIGIRDSFDAWGRGVLVTVSS
VL: B1 VL with V10M, S23T, E54D, T60I, D70G, N78S, N96S
notes: also called 380L Fab
B3: antibody 382S (antibody, V domains shown)
VH: QVQLVQSGAEVKKPGSSVKVSCKASGGTFSNYGISWVRQAPGQGLEWMGRNIPIIGIANYAQKFQDRVTITADKSTSTVFMELRSLRYEDTAVYYCARDPLAARRGNWFDPWGQGTLVTVSS
VL: DIQMTQSPSTLSASVGDRVTITCRASQSVSSWLAWYQQKPGKAPKLLIYDASTLQSGVPSRFSGSGSGTEFTLTISSLQPDDFATYYCQQYNSYSYTFGQGTKLEIK
B4: antibody 335S (antibody, V domains shown)
VH: EVQLVESGGGVVQPGRSLRLSCAASGFSFSNYAMHWVRQAPGKGLEWVAVTWYDGSSKYHADSVKGRFTISRDNSKNTLYLQMNSLRAEDTAVYYCARWGMGIVASPGNVLNYYYFMDVWGQGTTVIVSS
VL: SYELTQPPSVSVSPGQTARITCSGNPLPKKHTYWYQQKPGQAPVLMIYKDSERPSRIPERFSGSSSGTTVTLTISGVQAEDEADYYCQSADSTGIVVFGGGTKLTVL
B5: antibody 285S (antibody, V domains shown)
VH: QVQLVQSGAEVKKPGSSVKVSCKASGGTFSTYAITWVRQAPGQGLEWMGRIIPILRVANYAQKFQGRVTITADSSTSTAYMELSSLRSEDTAVYYCANLLAYCGGDCRSDYWGQGTLVTVSS
VL: EIVLTQSPGTLSLSPGERATLSCRASQSVKNSYLAWYHQKPGQAPRLLIYGASSRATGIPDRFSGSGSGTDFTLTISRLEPEDFAVYYCQQYGSSLWTFGQGTKVDVK
B6: antibody 578S (antibody, V domains shown)
VH: EVQLVESGGGVVQPGRSLRLSCAASGFTFSSYELHWVRQAPGKGLEWVAVISYDGSSKYYADSLKGRFTISRDNSKNTLSLQMNSLRAEDTAMYYCVRQSEAYCSDGRCDWRRALDIWGQGTMVTVSP
VL: DIQMTQSPSSLSASVGDRVTITCQASQDIKNYLNWYQQKPGKAPKLLIYDVSKLETGVPSRFSGSGSGTDFSFTISSLQPEDIATYYCQQYDNLPSYTFGQGTKLEIK
B7: antibody 365S (antibody, V domains shown)
VH: EVQLVESGGGLVQPGGSLRLSCAASGLTFSAYEMNWVRQAPGKGLEWVSHITTSGSAIYYADSVKGRFTISRDNAKNSLHLQMNRLRADDTAVYFCARDSTIVQCSGTSCHVSTYSYMDVWGKGTTVTVSS
VL: EIVLTQSPATLSLSPGERATLSCRASQSVTTYLAWYQHKPGQAPRLLIYDASKRATGIPARFSGSGSGTDFTLTISSLEPEDFAVYHCQQRSSWPPITFGQGTRLEIK
B8: antibody 405S (antibody, V domains shown)
VH: EVQLVESGGGLIQPGGSLRLSCAASGFTVSSHYMSWVRQAPGKGLEWVSGIYSGGRTHYADSVKGRFTISRDNSKNTLYLQMNSLRADDTAVYSCARGTLLYLYGMDVWGQGTTVTVSS
VL: QSVLTQPPSVSAAPGQRVTISCTGSSSNIGAGYNVHWYQQLPGAAPKLLIYGNTNRPSGVPDRFSGSKSGTSASLAITGLQAEDEADYYCQSFDSSLSGVFGTGTKVTVL
B9: antibody 102S (antibody, V domains shown)
VH: EVQLVESGGGLVQPGGSLRLSCSASGFTFHSYDMNWARQAPGKGLEWVSEISSSGQSKNYADSVRGRFTISRDNAKNSLYLQINSLRSEDTAVYYCARVGFVAKFGSDFSITHGTYYLDYWGQGTLVTVSS
VL: QLVLTQSPATLSLSPGERATLSCRASQSVSNYLAWYQQKPGQAPRLLIYDASNRAPGVPARFSGSGSGTDFSLTISSLEPEDFAVYYCLQRSNWPPWTFGQGTKVEIK
B10: antibody 191L (antibody, V domains shown)
VH: EVQLVESGGGLVQPGGSLRLSCAASGFTFSSYGIHWVRQAPGKGLEWVAIISYDGNKKFHADSVKDRFTISRDNSKNMLYLQMNNLKLEDTAVYYCARAYDSGYFAGSVFYYWGQGVLVTVSS
VL: EVVFTQPHSVSGSPGQTVTISCTRSSGSIDSEYVQWYQQRPGNAPTTVIYKDNQRPSGVPDRFSGSIDSSSNSASLAISGLKSEDEADYYCQSADGNYHPVFGEGTRLTVL
B11: antibody 315L (antibody, V domains shown)
VH: QVQLQESGPGLVKPSETLSLTCTVSGGSITGNYWTWVRQPPGKGLQYIGRFDAGGKTYYNPPLKSRVSILGDKSKNQVSLNLTSVTVADTGVYYCAREQWGQLLSGSFDVWGRGVLVTVSS
VL: SYELTQPPSVSVSPGQTARITCSGDALPDYYAHWYQQKSGQAPMLVIYKDTERPSGIPERFSGSSSGTTVSLTISGVQAEDEADYYCQSGDSSGNHWVFGGGTRLTVL
B12: antibody 314L (antibody, V domains shown)
VH: B1 VH
VL: EVVFTQPHSVSGSPGQMVTISCTRSSGTIDNSYVYWHQQRPGSAPTTVIYNDDQRPSGVPDRFSGSIDSSSNSASLTISGLKSEDEADYYCQSYDSSGWVFGGGTRLTVL
B13: antibody 206L (antibody, V domains shown)
VH: EVQLVESGGGVVQPGGSLRLSCAASGFTFDDYAMHWVRQAPGKGLEWVSGISWSGGNTYYADSVKGRFTVSRENAKNSLYLQMNRLRAEDTAFYNCARTSQGGAVVFSAPNYWGQGVLVTVSS
VL: QSVLTQAPSVSGAPGQRVTISCTGSSSNIGGYYVQWYQQLPGRAPKLLIYENNKRPSGVSDRFSGSRSASSASLTITGLQSEDEADYYCQSYDSRLNGYIFGGGTRLTVL
B14: antibody 231L (antibody, V domains shown)
VH: EVQLVESGGGLVQPGGSLRLSCAASAFTFDDYAMHWVRQAPGKGLEWVSGITWSGLSTYYADSVKGRFTISRDNAKNSLYLQMNSLRVEDTALYYCAKSGNNSPFSGLDSWGQGAVVTVSS
VL: QSVLTQPPSVSGAPGQRVTVSCTGSSSNIGAGSYVQWYQQLPGTAPKLLIYENNKRPSGVSDRFSGSKSGTSASLTITGLQSEDEADYYCQSYDSSLNAYIFGAGTRLTVL
B15: antibody 310L (antibody, V domains shown)
VH: EMQLVESGGGLVQPGGSLRLSCAASGFTFDAYAMHWVRQRPGKGLEWISGIIWSGRTTYYADSVKGRFTFSRDNSKNSLYLEMNSLKPEDTALYYCAKDSWNYGVYNSLDVWGRGILVTVSS
VL: QSVLTQPPSVSGAPGQRVTISCTGSSSNVGPHYVSWYQHLPGTTPKLLIFQDNKRPSGVSDRFSGSKSASSASLTITGLQTEDEADYYCLSYDSSLNVYIFGSGTRLTVL

target: T1, mucin domain-deleted Sudan GP (GPdMuc) (Sudan virus (SUDV), UniProt Q7T9D9 33-632); test: BLI, Fab, pH 5.3
T1 construct: also called Sudan GPdMuc; GP(S)dMuc

Binder	Kd [pM]	koff [s⁻¹]	kon [M⁻¹ s⁻¹]
B1	460	5.26e-05	112000
B2	640	0.000109	172000

target: T1, mucin domain-deleted Sudan GP (GPdMuc); test: BLI, Fab, pH 7.4

Binder	Kd [pM]	koff [s⁻¹]	kon [M⁻¹ s⁻¹]
B1	372	5.38e-05	145000
B2	567	9.54e-05	168000

target: T2, mucin domain-deleted Zaire GP (GPdMuc) (Ebola (Zaire) virus (EBOV), UniProt Q05320 33-632); test: BLI, Fab, pH 7.4
T2 construct: also called Zaire GPdMuc; GP(Z)dMuc

Binder	Kd [pM]	koff [s⁻¹]	kon [M⁻¹ s⁻¹]
B1	13300	0.0015	115000
B2	6640	0.000778	118000

target: T1, mucin domain-deleted Sudan GP (GPdMuc); test: ELISA on coated GP

Binder	EC50 [µg/mL]
B3	0.26
B4	0.02
B5	0.02
B6	0.09
B7	0.06
B8	0.04
B9	0.09

target: T1, mucin domain-deleted Sudan GP (GPdMuc); test: ELISA on coated GP; remark: another data set of the same source

Binder	EC50 [µg/mL]
B10	1.74
B11	0.12
B12	0.31
B13	0.2
B14	0.02
B15	0.34

target: T2, mucin domain-deleted Zaire GP (GPdMuc); test: ELISA on coated GP

Binder	EC50 [µg/mL]
B10	0.01
B11	1.5
B12	2.6
B13	0.01
B14	0.01
B15	0.01

target: T1, mucin domain-deleted Sudan GP (GPdMuc); test: BLI competition on Sudan GPdMuc (lower table); competitor 16F6

Binder	% inhibition of binding [%]
B3	13.6
B4	8.17
B5	3.29
B6	11.1
B7	12
B8	10.1
B9	19.4

target: T1, mucin domain-deleted Sudan GP (GPdMuc); test: BLI competition on Sudan GPdMuc (lower table); competitor 316L

Binder	% inhibition of binding [%]
B3	10.7
B4	1.49
B5	-6.78
B6	7.8
B7	5.16
B8	7.24
B9	10.3

target: T1, mucin domain-deleted Sudan GP (GPdMuc); test: BLI competition on Sudan GPdMuc (lower table); competitor 15H10

Binder	% inhibition of binding [%]
B3	17.6
B4	8.78
B5	7.47
B6	7.51
B7	9.47
B8	11.1
B9	11.9

target: T1, mucin domain-deleted Sudan GP (GPdMuc); test: BLI competition on Sudan GPdMuc (lower table); competitor mAb166

Binder	% inhibition of binding [%]
B3	84.9
B4	80
B5	64.6
B6	86.6
B7	84.2
B8	84.1
B9	78.2
